{"source": "patent US20140242093A1", "about": "“METHODS AND COMPOSITIONS FOR MODULATING THE INNATE IMMUNE RESPONSE AND/OR MYOGENESIS IN A MAMMALIAN SUBJECT” (FRED HUTCHINSON CANCER RESEARCH CENTER, priority 2011, published 2014)", "molecules": {"B1": {"name": "DUX4-s: short splice form of DUX4 (SEQ ID NO:112), keeps the double-homeobox domains, lacks the C-terminal activation domain (protein, listed as Homo sapiens)", "chain": "MALPTPSDSTLPAEARGRGRRRRLVWTPSQSEALRACFERNPYPGIATRERLAQAIGIPEPRVQIWFQNERSRQLRQHRRESRPWPGRRGPPEGRRKRTAVTGSQTALLLRAFEKDRFPGIAAREELARETGLPESRIQIWFQNRRARHPGQGGRAPAQV"}}, "key": {"[1]": {"tested_on": "human rhabdomyosarcoma cell line RD", "test": "Luciferase reporter assay with DUX4 binding sites", "type": "cell-based", "experimental": "The DUX4 binding site in the ZSCAN4 pGL3-promoter construct was either reversed in orientation (as shown in FIG. 3D) or moved downstream of the reporter gene (as shown in FIG. 3E). […] Transfections and luciferase assays were done as in main methods. Data are given as the averages±SD of triplicates.\nTransient DNA transfections of RD cells were performed using SuperFect (Qiagen) according to manufacturer specifications. Briefly, 3×10^5 cells were seeded per 35 mm plate the day prior to transfection. […] Cells were lysed 24 h post-transfection in Passive Lysis Buffer (Promega). Luciferase activities were quantified using reagents from the Dual-Luciferase Reporter Assay System (Promega) following manufacturer's instructions. Light emission was measured using BioTek Synergy2 luminometer. Luciferase data are given as the averages±SD of at least triplicates."}, "[2]": {"tested_on": "cultured human skeletal muscle cells", "settings": "cited from earlier work"}, "FSHD cultured myoblasts": {"tested_on": "FSHD cultured myoblasts", "test": "Dominant negative inhibition of DUX4-fl by lenti-DUX4-s in FSHD muscle cells", "type": "cell-based, human", "settings": "lentiviral expression in FSHD muscle cells, 48 hours of differentiation", "experimental": "Simultaneously, cells were transduced by lentivirus carrying DUX4-s or GFP along with 8 μg/mL polybrene. Cells were washed and changed to plain differentiation media after 24 hours. Cells were harvested for RNA after 48 hours of differentiation. Untransduced cells were used to assess baseline expression of DUX4-fl target genes."}, "Human myoblasts": {"tested_on": "Human myoblasts", "test": "Expression array of the innate immune response to lentiviral infection versus uninfected cells", "type": "cell-based", "experimental": "RNA was harvested from the lenti-viral infected cells and uninfected control cells at 24 hours after infection."}}, "note": "“Also recorded” adds a separate entry of the source."}
{"molecule": "B1", "values": [{"measurement": "luciferase expression from pGL3-promoter reporter with 31 bp DUX4 binding site", "setting": "[1]; TRIM48 or ZSCAN4 site, co-transfection in RD cells", "result": "did not activate expression"}, {"measurement": "effect on DUX4-fl reporter activation when co-expressed", "setting": "[1]; ZSCAN4 1.9 kb reporter", "result": "interfered with the activity of DUX4-fl"}, {"measurement": "toxicity of forced over-expression", "setting": "[2]", "result": "not toxic"}, {"measurement": "endogenous expression of DUX4 target genes (PRAMEF1, RFPL2, MBD3L2)", "setting": "FSHD cultured myoblasts", "result": "inhibited the endogenous expression of the target genes; also recorded: blocks expression of these three DUX4-fl target genes"}, {"measurement": "DEFB103A and DEFB103B transcripts", "setting": "Human myoblasts; expression array", "result": "not"}, {"measurement": "CCL2 expression ratio vs GFP (.fc)", "setting": "Human myoblasts; gene CCL2 NM_002982.3, vs lenti-GFP, 24 hours after infection", "result": 0.44, "unit": "log2 fold change"}, {"measurement": "CCL2 expression ratio vs NoLenti (.fc)", "setting": "Human myoblasts; gene CCL2 NM_002982.3, vs uninfected, 24 hours after infection", "result": 2.82, "unit": "log2 fold change"}, {"measurement": "CCL5 expression ratio vs GFP (.fc)", "setting": "Human myoblasts; gene CCL5 NM_002985.2, vs lenti-GFP, 24 hours after infection", "result": 1.89, "unit": "log2 fold change"}, {"measurement": "CCL5 expression ratio vs NoLenti (.fc)", "setting": "Human myoblasts; gene CCL5 NM_002985.2, vs uninfected, 24 hours after infection", "result": 4.33, "unit": "log2 fold change"}, {"measurement": "CXCL1 expression ratio vs GFP (.fc)", "setting": "Human myoblasts; gene CXCL1 NM_001511.1, vs lenti-GFP, 24 hours after infection", "result": 0.20, "unit": "log2 fold change"}, {"measurement": "CXCL1 expression ratio vs NoLenti (.fc)", "setting": "Human myoblasts; gene CXCL1 NM_001511.1, vs uninfected, 24 hours after infection", "result": 3.36, "unit": "log2 fold change"}, {"measurement": "CXCL2 expression ratio vs GFP (.fc)", "setting": "Human myoblasts; gene CXCL2 NM_002089.3, vs lenti-GFP, 24 hours after infection", "result": 0.00, "unit": "log2 fold change"}, {"measurement": "CXCL2 expression ratio vs NoLenti (.fc)", "setting": "Human myoblasts; gene CXCL2 NM_002089.3, vs uninfected, 24 hours after infection", "result": 1.09, "unit": "log2 fold change"}, {"measurement": "CXCL5 expression ratio vs GFP (.fc)", "setting": "Human myoblasts; gene CXCL5 NM_002994.3, vs lenti-GFP, 24 hours after infection", "result": 0.82, "unit": "log2 fold change"}, {"measurement": "CXCL5 expression ratio vs NoLenti (.fc)", "setting": "Human myoblasts; gene CXCL5 NM_002994.3, vs uninfected, 24 hours after infection", "result": 2.60, "unit": "log2 fold change"}, {"measurement": "CXCL6 expression ratio vs GFP (.fc)", "setting": "Human myoblasts; gene CXCL6 NM_002993.2, vs lenti-GFP, 24 hours after infection", "result": 0.17, "unit": "log2 fold change"}, {"measurement": "CXCL6 expression ratio vs NoLenti (.fc)", "setting": "Human myoblasts; gene CXCL6 NM_002993.2, vs uninfected, 24 hours after infection", "result": 1.77, "unit": "log2 fold change"}, {"measurement": "DDX58 expression ratio vs GFP (.fc)", "setting": "Human myoblasts; gene DDX58 NM_014314.3, vs lenti-GFP, 24 hours after infection", "result": 0.02, "unit": "log2 fold change"}, {"measurement": "DDX58 expression ratio vs NoLenti (.fc)", "setting": "Human myoblasts; gene DDX58 NM_014314.3, vs uninfected, 24 hours after infection", "result": 2.14, "unit": "log2 fold change"}, {"measurement": "DHX58 (LGP2) expression ratio vs GFP (.fc)", "setting": "Human myoblasts; gene DHX58 NM_024119.2, vs lenti-GFP, 24 hours after infection", "result": 0.70, "unit": "log2 fold change"}, {"measurement": "DHX58 (LGP2) expression ratio vs NoLenti (.fc)", "setting": "Human myoblasts; gene DHX58 NM_024119.2, vs uninfected, 24 hours after infection", "result": 3.04, "unit": "log2 fold change"}, {"measurement": "IFI6 expression ratio vs GFP (.fc)", "setting": "Human myoblasts; gene IFI6 NM_022872.2, vs lenti-GFP, 24 hours after infection", "result": "−0.04", "unit": "log2 fold change"}, {"measurement": "IFI6 expression ratio vs NoLenti (.fc)", "setting": "Human myoblasts; gene IFI6 NM_022872.2, vs uninfected, 24 hours after infection", "result": 5.05, "unit": "log2 fold change"}, {"measurement": "IFI16 expression ratio vs GFP (.fc)", "setting": "Human myoblasts; gene IFI16 NM_005531.1, vs lenti-GFP, 24 hours after infection", "result": 0.68, "unit": "log2 fold change"}, {"measurement": "IFI16 expression ratio vs NoLenti (.fc)", "setting": "Human myoblasts; gene IFI16 NM_005531.1, vs uninfected, 24 hours after infection", "result": 2.52, "unit": "log2 fold change"}, {"measurement": "IFI27 expression ratio vs GFP (.fc)", "setting": "Human myoblasts; gene IFI27 NM_005532.3, vs lenti-GFP, 24 hours after infection", "result": 0.27, "unit": "log2 fold change"}, {"measurement": "IFI27 expression ratio vs NoLenti (.fc)", "setting": "Human myoblasts; gene IFI27 NM_005532.3, vs uninfected, 24 hours after infection", "result": 7.60, "unit": "log2 fold change"}, {"measurement": "IFI35 expression ratio vs GFP (.fc)", "setting": "Human myoblasts; gene IFI35 NM_005533.2, vs lenti-GFP, 24 hours after infection", "result": 0.92, "unit": "log2 fold change"}, {"measurement": "IFI35 expression ratio vs NoLenti (.fc)", "setting": "Human myoblasts; gene IFI35 NM_005533.2, vs uninfected, 24 hours after infection", "result": 4.33, "unit": "log2 fold change"}, {"measurement": "IFI44L expression ratio vs GFP (.fc)", "setting": "Human myoblasts; gene IFI44L NM_006820.1, vs lenti-GFP, 24 hours after infection", "result": 0.47, "unit": "log2 fold change"}, {"measurement": "IFI44L expression ratio vs NoLenti (.fc)", "setting": "Human myoblasts; gene IFI44L NM_006820.1, vs uninfected, 24 hours after infection", "result": 6.22, "unit": "log2 fold change"}, {"measurement": "IFI44 expression ratio vs GFP (.fc)", "setting": "Human myoblasts; gene IFI44 NM_006417.3, vs lenti-GFP, 24 hours after infection", "result": 0.29, "unit": "log2 fold change"}, {"measurement": "IFI44 expression ratio vs NoLenti (.fc)", "setting": "Human myoblasts; gene IFI44 NM_006417.3, vs uninfected, 24 hours after infection", "result": 3.59, "unit": "log2 fold change"}, {"measurement": "IFIH1 (MDA5) expression ratio vs GFP (.fc)", "setting": "Human myoblasts; gene IFIH1 NM_022168.2, vs lenti-GFP, 24 hours after infection", "result": 1.66, "unit": "log2 fold change"}, {"measurement": "IFIH1 (MDA5) expression ratio vs NoLenti (.fc)", "setting": "Human myoblasts; gene IFIH1 NM_022168.2, vs uninfected, 24 hours after infection", "result": 5.34, "unit": "log2 fold change"}, {"measurement": "IFIT1 expression ratio vs GFP (.fc)", "setting": "Human myoblasts; gene IFIT1 NM_001548.3, vs lenti-GFP, 24 hours after infection", "result": 0.72, "unit": "log2 fold change"}, {"measurement": "IFIT1 expression ratio vs NoLenti (.fc)", "setting": "Human myoblasts; gene IFIT1 NM_001548.3, vs uninfected, 24 hours after infection", "result": 5.50, "unit": "log2 fold change"}, {"measurement": "IFIT3 expression ratio vs GFP (.fc)", "setting": "Human myoblasts; gene IFIT3 NM_001549.2, vs lenti-GFP, 24 hours after infection", "result": 1.81, "unit": "log2 fold change"}, {"measurement": "IFIT3 expression ratio vs NoLenti (.fc)", "setting": "Human myoblasts; gene IFIT3 NM_001549.2, vs uninfected, 24 hours after infection", "result": 5.49, "unit": "log2 fold change"}, {"measurement": "IFIT5 expression ratio vs GFP (.fc)", "setting": "Human myoblasts; gene IFIT5 NM_012420.1, vs lenti-GFP, 24 hours after infection", "result": "−0.28", "unit": "log2 fold change"}, {"measurement": "IFIT5 expression ratio vs NoLenti (.fc)", "setting": "Human myoblasts; gene IFIT5 NM_012420.1, vs uninfected, 24 hours after infection", "result": 0.81, "unit": "log2 fold change"}, {"measurement": "IFITM1 expression ratio vs GFP (.fc)", "setting": "Human myoblasts; gene IFITM1 NM_003641.3, vs lenti-GFP, 24 hours after infection", "result": 0.34, "unit": "log2 fold change"}, {"measurement": "IFITM1 expression ratio vs NoLenti (.fc)", "setting": "Human myoblasts; gene IFITM1 NM_003641.3, vs uninfected, 24 hours after infection", "result": 7.08, "unit": "log2 fold change"}, {"measurement": "IFITM2 expression ratio vs GFP (.fc)", "setting": "Human myoblasts; gene IFITM2 NM_006435.2, vs lenti-GFP, 24 hours after infection", "result": 0.01, "unit": "log2 fold change"}, {"measurement": "IFITM2 expression ratio vs NoLenti (.fc)", "setting": "Human myoblasts; gene IFITM2 NM_006435.2, vs uninfected, 24 hours after infection", "result": 1.29, "unit": "log2 fold change"}]}
